{
  "source": "patent JP2013242308A",
  "target": "テネイシンC (human) (UniProt P24821)",
  "experiment": "SPR (Biacore 2000)",
  "data": [
    {"binder": "抗TNC−4F10のscFvフラグメント(scFv 4F10) (scFv, not shown: small tags and cut ends) scFv: EVLLQQSGPELVKPGASVKIPCKASGYTFTDYNMDWMKQSHGKSLEWIGDINPKSGNSIYNQKFKGKATLTVDKSSSTAYMELRSLTSEDTAVYYCAGRDWSAWFAFWGQGTLVSVSAGGGGSGGGGSGGGGSDVVMTQTPLTLSVIIGQPASISCKSSQSLLYSNGKTYLNWLLQRPGQSPKRLIYLVSKLDSGVPDRFTGSGSGTDFTLKISRVEAEDLGDYYCVQTTHFPWTFGGGTKLEIKDYKDDDDK", "values": [
      {"measurement": "Kd", "result": 40, "unit": "nM"}
    ]}
  ]
}
